Measured values: publication PMC4066763, “Programmable DNA-binding proteins from Burkholderia provide a fresh perspective on the TALE-like repeat domain”
Residue numbers refer to the chain shown, from its start.

B1: BEBat1 T-0, MST (dsDNA)
DNA 1: TAGACTAAGAGAAGCAAAGACGTTATATGC
DNA 2: GCATATAACGTCTTTGCTTCTCTTAGTCTA
B2: BEBat1 C-0, MST (dsDNA)
DNA 1: B1 DNA 1 with T6C
DNA 2: B1 DNA 2 with A25G
B3: BEBat1 (T0), EMSA (dsDNA)
DNA 1: B1 DNA 1
DNA 2: B1 DNA 2
B4: BEBat2, EMSA (dsDNA)
DNA 1: TAGACTTTGTTGAAAAGTTGTAAAAACATTATATGC
DNA 2: GCATATAATGTTTTTACAACTTTTCAACAAAGTCTA
B5: BEBat3, EMSA (dsDNA)
DNA 1: TAGACATAGATTATTATATTTGTAACAAGTAAATGC
DNA 2: GCATTTACTTGTTACAAATATAATAATCTATGTCTA
B6: BEBat1 G-0, MST (dsDNA)
DNA 1: B1 DNA 1 with T6G
DNA 2: B1 DNA 2 with A25C
B7: BEBat1 A-0, MST (dsDNA)
DNA 1: B1 DNA 1 with T6A
DNA 2: B1 DNA 2 with A25T

Experiments:
Bat1 (BurrH) [1] = biological target: T1, Bat1 (BurrH) (Burkholderia rhizoxinica HKI 0454, UniProt E5AV36 1-771); assay: MST; 10 mM MgCl2; EMSA: 15 mM Tris-Cl, 75 mM KCl, 2.5 mM DTT, 0.063% NP-40, 62.5 ng/ul dI.dC, 0.125 mg/ml BSA, 6.25% glycerol, 6.25 mM MgCl2, 0.125 mM EDTA, room temp, gel at 4 C; MST: 20 mM Tris pH 7.4, 150 mM NaCl, 10 mM MgCl2, 0.05% Tween, room temp, 100 nM labelled Bat1; conditions: protein: recombinant; tags: N-terminal His; label: none (stated unlabelled)
T1 sequence: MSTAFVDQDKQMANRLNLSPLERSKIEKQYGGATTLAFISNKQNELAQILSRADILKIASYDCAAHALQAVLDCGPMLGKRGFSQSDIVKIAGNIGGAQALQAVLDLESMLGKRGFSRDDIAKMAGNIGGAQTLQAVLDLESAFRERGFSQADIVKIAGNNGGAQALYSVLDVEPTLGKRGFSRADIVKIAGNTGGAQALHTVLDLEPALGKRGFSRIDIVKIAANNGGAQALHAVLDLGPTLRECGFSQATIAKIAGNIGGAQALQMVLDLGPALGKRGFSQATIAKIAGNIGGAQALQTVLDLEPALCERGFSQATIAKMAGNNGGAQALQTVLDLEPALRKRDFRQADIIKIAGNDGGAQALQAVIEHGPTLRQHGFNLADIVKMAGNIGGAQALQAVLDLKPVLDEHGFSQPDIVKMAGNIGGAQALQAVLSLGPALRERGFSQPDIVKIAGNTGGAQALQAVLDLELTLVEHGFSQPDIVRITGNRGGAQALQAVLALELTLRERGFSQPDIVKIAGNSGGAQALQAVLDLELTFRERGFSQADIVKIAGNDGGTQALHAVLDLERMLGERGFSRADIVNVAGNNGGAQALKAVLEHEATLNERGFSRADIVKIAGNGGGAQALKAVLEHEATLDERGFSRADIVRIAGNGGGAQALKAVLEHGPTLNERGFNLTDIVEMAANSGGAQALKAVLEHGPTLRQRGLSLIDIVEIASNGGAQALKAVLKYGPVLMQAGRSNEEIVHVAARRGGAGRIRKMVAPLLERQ

Bat3 = biological target: T2, Bat3 (Burkholderia rhizoxinica HKI 0454, UniProt E5AW43 1-311); assay: EMSA; 100 nM protein, 10 nM DNA, poly dI.dC; EMSA: 15 mM Tris-Cl, 75 mM KCl, 2.5 mM DTT, 0.063% NP-40, 62.5 ng/ul dI.dC, 0.125 mg/ml BSA, 6.25% glycerol, 6.25 mM MgCl2, 0.125 mM EDTA, room temp, gel at 4 C; MST: 20 mM Tris pH 7.4, 150 mM NaCl, 10 mM MgCl2, 0.05% Tween, room temp, 100 nM labelled Bat1; conditions: protein: recombinant; tags: N-terminal His; label: 5' Cy5 forward strand
T2 sequence: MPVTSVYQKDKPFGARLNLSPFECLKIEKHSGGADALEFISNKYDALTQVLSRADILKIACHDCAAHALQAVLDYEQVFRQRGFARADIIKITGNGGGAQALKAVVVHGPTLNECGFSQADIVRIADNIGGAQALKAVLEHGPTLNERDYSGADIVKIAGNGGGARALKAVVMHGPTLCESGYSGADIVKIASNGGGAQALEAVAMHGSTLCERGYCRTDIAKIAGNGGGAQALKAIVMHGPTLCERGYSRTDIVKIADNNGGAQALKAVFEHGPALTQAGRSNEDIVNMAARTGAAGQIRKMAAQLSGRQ

Bat2 = biological target: T3, Bat2 (Burkholderia rhizoxinica HKI 0454, UniProt E5AW45 1-997); assay: as above; conditions: protein: recombinant; tags: N-terminal His; label: 5' Cy5 forward strand
T3 sequence: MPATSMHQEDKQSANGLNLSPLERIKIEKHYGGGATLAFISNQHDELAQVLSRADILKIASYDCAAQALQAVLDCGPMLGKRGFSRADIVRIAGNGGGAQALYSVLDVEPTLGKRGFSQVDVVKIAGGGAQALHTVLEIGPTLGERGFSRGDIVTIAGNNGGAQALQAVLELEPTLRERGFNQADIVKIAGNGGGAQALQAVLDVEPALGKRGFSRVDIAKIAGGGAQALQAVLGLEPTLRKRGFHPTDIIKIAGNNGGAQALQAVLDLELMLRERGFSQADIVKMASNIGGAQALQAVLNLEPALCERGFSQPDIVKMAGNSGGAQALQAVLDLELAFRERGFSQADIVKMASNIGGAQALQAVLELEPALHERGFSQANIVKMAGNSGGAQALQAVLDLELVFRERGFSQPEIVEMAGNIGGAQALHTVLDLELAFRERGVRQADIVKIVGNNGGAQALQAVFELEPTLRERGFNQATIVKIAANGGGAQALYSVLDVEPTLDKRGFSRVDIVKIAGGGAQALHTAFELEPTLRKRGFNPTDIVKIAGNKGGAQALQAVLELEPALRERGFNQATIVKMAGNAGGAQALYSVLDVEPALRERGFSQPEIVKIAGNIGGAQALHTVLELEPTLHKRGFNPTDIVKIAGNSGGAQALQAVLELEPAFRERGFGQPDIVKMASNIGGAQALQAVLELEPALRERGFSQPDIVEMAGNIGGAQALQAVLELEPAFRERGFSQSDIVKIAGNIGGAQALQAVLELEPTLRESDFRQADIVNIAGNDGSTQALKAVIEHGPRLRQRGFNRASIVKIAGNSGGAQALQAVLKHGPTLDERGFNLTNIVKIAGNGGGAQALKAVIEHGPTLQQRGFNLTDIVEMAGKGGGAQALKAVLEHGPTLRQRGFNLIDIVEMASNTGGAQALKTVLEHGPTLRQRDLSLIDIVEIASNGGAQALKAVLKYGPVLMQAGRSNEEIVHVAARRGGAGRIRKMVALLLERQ

Bat1 (BurrH) [2] = biological target: T1, Bat1 (BurrH); assay: as above; conditions: protein: recombinant; tags: N-terminal His; label: 5' Cy5 forward strand

Binder | binding result (Bat1 (BurrH) [1]) | binding result (Bat3) | binding result (Bat2) | other results
B1 |  |  |  | Kd (Bat1 (BurrH) [1]): 132 nM
B2 | binds |  |  | 
B3 |  | no binding | no binding | 
B4 |  | no binding | binds | binding result (Bat1 (BurrH) [2]): no binding
B5 |  | no binding | no binding | binding result (Bat1 (BurrH) [2]): no binding
B6 | binds |  |  | 
B7 | binds |  |  | 
